The target in assay [1] is T1, human OX40 (human, UniProt P43489 29-277).
T1 construct: whole, on cells; also called hOX40; OX40 receptor
T1 sequence (looked up): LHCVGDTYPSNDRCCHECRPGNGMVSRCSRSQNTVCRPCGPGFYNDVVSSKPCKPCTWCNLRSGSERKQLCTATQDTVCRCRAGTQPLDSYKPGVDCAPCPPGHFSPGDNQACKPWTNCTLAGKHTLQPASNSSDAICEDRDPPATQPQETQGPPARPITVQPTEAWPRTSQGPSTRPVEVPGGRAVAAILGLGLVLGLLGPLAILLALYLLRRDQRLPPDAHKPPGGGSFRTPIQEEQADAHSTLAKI
The assay is described as follows: flow cytometry on L/OX40 cells, FITC goat anti-human IgG. The method, then: In a typical experiment, various concentrations of Ch119-43-1 were incubated with 10⁵ L/OX40 cells in PBS containing 0.5% BSA and 0.05% NaN₃ (FACS Buffer) for 1 hour at 4° C. Cells were then washed with ice-cold FACS Buffer and subjected to incubation with FITC-labeled goat anti-human IgG antibody for 30 min at 4° C. After washing with FACS Buffer, stained cells were analyzed using a FACScan flow cytometer (BD Biosciences, San Jose, Calif.).

Assay [2] deals with T1, human OX40. The assay is described as follows: cell ELISA on dried L-hOX40 versus parental L cells, anti-mouse IgG Fc HRP. The method, then: In the experiment of FIG. 10, hOX40 hybridoma supernatants were screened against L-hOX40 versus L parental cells by ELISA. […] Plates were then frozen at −20° C. for at least one day before use. For antibody binding assays, frozen cells were rehydrated with PBS and washed with wash buffer containing PBS plus 0.05% Tween 20, and blocked with 2% BSA in wash buffer. Conditioned cells were then used for binding to OX40 antibody supernatants.
Background: An ELISA detects its analyte on a solid surface through an enzyme-linked reagent.

Assay [3] has as its target T1, human OX40. The assay is described as follows: FACS binding assay on L/OX40 cells, PE goat anti-human IgG.
In assay [4] the target is T1, human OX40. In words: FACS binding assay on L/hOX40 cells, PE goat anti-human IgG. (In flow cytometry, cells or beads pass a laser one at a time.)

B1: Chimeric 119-43-1 IgG1/kappa antibody (antibody, V domains shown)
VH: EVKLEESGGGLVQPGGSMKLSCAASGFTFSDAWMDWVRQSPEKGLEWVAEIRSKANNHATYYAESVNGRFTISRDDSKSSVYLQMNSLRAEDTGIYYCTWGEVFYFDYWGQGTTLTVSS
VL: DIQMTQSPSSLSASLGGKVTITCKSSQDINKYIAWYQHKPGKGPRLLIHYTSTLQPGIPSRFSGSGSGRDYSFSISNLEPEDIATYYCLQYDNLLTFGAGTKLELKR
notes: also called Ch119-43-1
With B1, the EC50 in assay [1] was determined as 0.96 µg/mL.

B2: mouse anti-human OX40 monoclonal antibody 119-122 (antibody, V domains shown)
VH: EVQLVESGGGLVQPGESLKLSCESNEYEFPSHDMSWVRKTPEKRLELVAAINSDGGSTYYPDTMERRFIISRDNTKKTLYLQMSSLRSEDTALYYCARHYDDYYAWFAYWGQGTLVTVSA
VL: DIVLTQSPASLAVSLGQRATISCRASKSVSTSGYSYMHWYQQKPGQPPKLLIYLASNLESGVPARFSGSGSGTDFTLNIHPVEEEDAATYYCQHSRELPLTFGAGTKLELK
notes: Mouse hybridoma antibody; also called Mouse122
As for B2, the binding result in assay [2] was “binds”.

B3: Chimeric 119-122 IgG1/kappa monoclonal antibody (antibody, V domains shown)
VH: EVQLVESGGGLVQPGESLKLSCESNEYEFPSHDMSWVRKTPEKRLELVAAINSDGGSTYYPDTMERRFIISRDNTKKTLYLQMSSLRSEDTALYYCARHYDDYYAWFAYWGQGTLVTVSA
VL: DIVLTQSPASLAVSLGQRATISCRASKSVSTSGYSYMHWYQQKPGQPPKLLIYLASNLESGVPARFSGSGSGTDFTLNIHPVEEEDAATYYCQHSRELPLTFGAGTKLELK
notes: Mouse variable regions with human gamma-1 and kappa constant regions (IgG1/kappa); also called Ch119
On to B3, for which the binding result in assay [3] is recorded as “binds”.

B4: mouse anti-human OX40 monoclonal antibody 106-222 (antibody, V domains shown)
VH: QIQLVQSGPELKKPGETVKISCKASGYTFTDYSMHWVKQAPGKGLKWMGWINTETGEPTYADDFKGRFAFSLETSASTAYLQINNLKNEDTATYFCANPYYDYVSYYAMDYWGHGTSVTVSS
VL: DIVMTQSHKFMSTSVRDRVSITCKASQDVSTAVAWYQQKPGQSPKLLIYSASYLYTGVPDRFTGSGSGTDFTFTISSVQAEDLAVYYCQQHYSTPRTFGGGTKLEIK
notes: Mouse hybridoma antibody; also called Mouse222
For the molecule B4, in assay [2], the binding result is given as “binds”.

B5: Chimeric 106-222 IgG1/kappa monoclonal antibody (antibody, V domains shown)
VH: QIQLVQSGPELKKPGETVKISCKASGYTFTDYSMHWVKQAPGKGLKWMGWINTETGEPTYADDFKGRFAFSLETSASTAYLQINNLKNEDTATYFCANPYYDYVSYYAMDYWGHGTSVTVSS
VL: DIVMTQSHKFMSTSVRDRVSITCKASQDVSTAVAWYQQKPGQSPKLLIYSASYLYTGVPDRFTGSGSGTDFTFTISSVQAEDLAVYYCQQHYSTPRTFGGGTKLEIK
notes: Mouse variable regions with human gamma-1 and kappa constant regions (IgG1/kappa); also called Ch222
In the case of B5, the binding result in assay [4] is on record as “binds”.

B6: Humanized 119-122 IgG1/kappa monoclonal antibody (antibody, V domains shown)
VH: EVQLVESGGGLVQPGGSLRLSCAASEYEFPSHDMSWVRQAPGKGLELVAAINSDGGSTYYPDTMERRFTISRDNAKNSLYLQMNSLRAEDTAVYYCARHYDDYYAWFAYWGQGTMVTVSS
VL: EIVLTQSPATLSLSPGERATLSCRASKSVSTSGYSYMHWYQQKPGQAPRLLIYLASNLESGVPARFSGSGSGTDFTLTISSLEPEDFAVYYCQHSRELPLTFGGGTKVEIK
notes: Human IgG1/kappa; also called Hu119
Consider B6, for which the binding result in assay [3] was “binds”.

B7: Humanized 106-222 IgG1/kappa monoclonal antibody (antibody, V domains shown)
VH: QVQLVQSGSELKKPGASVKVSCKASGYTFTDYSMHWVRQAPGQGLKWMGWINTETGEPTYADDFKGRFVFSLDTSVSTAYLQISSLKAEDTAVYYCANPYYDYVSYYAMDYWGQGTTVTVSS
VL: DIQMTQSPSSLSASVGDRVTITCKASQDVSTAVAWYQQKPGKAPKLLIYSASYLYTGVPSRFSGSGSGTDFTFTISSLQPEDIATYYCQQHYSTPRTFGQGTKLEIK
notes: Human IgG1/kappa; also called Hu222
As for B7, the binding result in assay [4] was “binds”.

Usually EC50 stands for the concentration at which the effect is half-maximal. Read a low EC50 as greater potency.

(Values after patent US20160068604A1 (University of Texas, published 2016).)
